Results from patent US20210072250A1.

Assays:
P1-Hpu [1] = assay: SPR, Biacore T200, peptide captured, Fab flowed
P5-Hpu [2] = assay: SPR, Biacore T200, peptide captured, Fab flowed
P4-Hpu [3] = assay: SPR, Biacore T200, peptide captured, Fab flowed
P2-Hpu [4] = assay: SPR, Biacore T200, peptide captured, Fab flowed
P1-Hpu [5] = assay: SPR, ratio of KD values
P5-Hpu [6] = assay: SPR, ratio of KD values
P3-Hpu [7] = assay: SPR, ratio of KD values
P4-Hpu [8] = assay: SPR, ratio of KD values
P2-Hpu [9] = assay: SPR, ratio of KD values
P3-Hpu [10] = assay: SPR, Biacore T200, peptide captured, Fab flowed
P2-deoxy [11] = assay: SPR, ratio of KD values
P1-deoxy [12] = assay: SPR, ratio of KD values
P1-Hpu [13] = assay: SPR
P1-deoxy [14] = assay: SPR
P2-deoxy [15] = assay: SPR, Biacore T200, peptide captured, Fab flowed
P1-deoxy [16] = assay: SPR, Biacore T200, peptide captured, Fab flowed

B1: FabHpu24 (Fab)
heavy: QEQLKESGGRLVAPGTPLTLTCTVSGFDISDYAMIWVRQAPGKGLEWIGIIYGGSNKLAYAKWAKGRFTISRTSTTVDLKITSPTTEDTATYFCARGYGSMDGYDRLNLWGQGTLVTVSSGQPKGPSVFPLAPCCGDTPSSTVTLGCLVKGYLPEPVTVTWNSGTLTNGVRTFPSVRQSSGLYSLSSVVSVTSSSQPVTCNVAHPATNTKVDKTVAPSTCSKPT
light: AAVLTQTPSPVSAAVGGTVTISCQSSETVYRGDWLSWFQKKPGQPPKLLIYDASYLASGVSSRFSGSGSGTHFTLTISGVQCDDAATYYCLGGYYDDADDTFGGGTEVVVKGDPVAPTVLIFPPAADQVATGTVTIVCVANKYFPDVTVTWEVDGTTQTTGIENSKTPQNSADCTYNLSSTLTLTSTQYNSHKEYTCKVTQGTTSVVQSFNRGDC
Kd (P1-Hpu [1]): 192 nM | Kd (P5-Hpu [2]): 96 nM | Kd (P4-Hpu [3]): 541 nM | Kd (P2-Hpu [4]): 157 nM

B2: FabHpu24.B (Fab)
heavy: QEQLKESGGRLVAPGTPLTLTCTVSGFDISDYAMIWVRQAPGKGLEWIGIIYGVINDLAYAKWAKGRFTISRTSTTVDLKITSPTTEDTATYFCARGYGSMDGYDRLNLWGQGTLVTVSSGQPKGPSVFPLAPCCGDTPSSTVTLGCLVKGYLPEPVTVTWNSGTLTNGVRTFPSVRQSSGLYSLSSVVSVTSSSQPVTCNVAHPATNTKVDKTVAPSTCSKPT
light: AAVLTQTPSPVSAAVGGTVTISCRSRQRVYLGDWLSWFQKKPGQPPKLLIYDASFRGDGVSSRFSGSGSGTHFTLTISGVQCDDAATYYCLGGYYDDADDTFGGGTEVVVKGDPVAPTVLIFPPAADQVATGTVTIVCVANKYFPDVTVTWEVDGTTQTTGIENSKTPQNSADCTYNLSSTLTLTSTQYNSHKEYTCKVTQGTTSVVQSFNRGDC
Fold improvement in KD over parent FabHpu24 (P1-Hpu [5]): 32 fold | Fold improvement in KD over parent FabHpu24 (P5-Hpu [6]): 13 fold | Fold improvement in KD over parent FabHpu24 (P3-Hpu [7]): > 5 fold | Fold improvement in KD over parent FabHpu24 (P4-Hpu [8]): 17 fold | Fold improvement in KD over parent FabHpu24 (P2-Hpu [9]): 12 fold | Kd (P1-Hpu [1]): 6 nM | Kd (P5-Hpu [2]): 7 nM | Kd (P3-Hpu [10]): 186 nM | Kd (P4-Hpu [3]): 32 nM | Kd (P2-Hpu [4]): 13 nM

B3: FabHpu98.61 (Fab)
heavy: QSVEESGGRLVTPGTPLTLTCTVSACSLYHCTMNWVRQAPGKGLEWIGDIYTDGNTYYANWAKGRFTISKTSTTVDLKITSPTTEDTATYFCARDSWDASSYYGLDLWGQGTLVTVSSGQPKGPSVFPLAPCCGDTPSSTVTLGCLVKGYLPEPVTVTWNSGTLTNGVRTFPSVRQSSGLYSLSSVVSVTSSSQPVTCNVAHPATNTKVDKTVAPSTCSKPT
light: AIKMTQTPSSVSAAVGGTVTINCQASEDIKRYLAWYQQKPGQPPKLLIYAASKLASGVSSRFKGSGSGTEYTLTISGVQCDDAATYYCQQGYTSSNVNNAFGGGTEVVVKGDPVAPTVLIFPPAADQVATGTVTIVCVANKYFPDVTVTWEVDGTTQTTGIENSKTPQNSADCTYNLSSTLTLTSTQYNSHKEYTCKVTQGTTSVVQSFNRGDC
Fold improvement in KD over parent FabHpu98 (P1-Hpu [5]): 7.9 fold | Fold improvement in KD over parent FabHpu98 (P5-Hpu [6]): 2.5 fold | Fold improvement in KD over parent FabHpu98 (P2-deoxy [11]): 1.8 fold | Fold improvement in KD over parent FabHpu98 (P4-Hpu [8]): 2.5 fold | Fold improvement in KD over parent FabHpu98 (P1-deoxy [12]): 6.9 fold | Fold improvement in KD over parent FabHpu98 (P2-Hpu [9]): 2.6 fold | Kd (P1-Hpu [13]): 18 nM | Kd (P1-deoxy [14]): 20 nM | Kd (P1-Hpu [1]): 15 nM | Kd (P5-Hpu [2]): 70 nM | Kd (P2-deoxy [15]): 86 nM | Kd (P4-Hpu [3]): 91 nM | Kd (P1-deoxy [16]): 17 nM | Kd (P2-Hpu [4]): 78 nM
